Earlier results as cited in PMC3985698.

Molecular target: Bad (Homo sapiens) (UniProt Q92934)
Details: cited from earlier work

Sequence of UniProt Q92934 (Q92934 whole entry): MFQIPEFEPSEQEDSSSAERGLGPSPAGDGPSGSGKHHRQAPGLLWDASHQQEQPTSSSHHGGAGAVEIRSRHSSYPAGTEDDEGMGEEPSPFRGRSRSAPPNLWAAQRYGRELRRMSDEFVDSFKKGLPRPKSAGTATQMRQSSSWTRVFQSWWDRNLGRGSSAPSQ

## Bcl-xL (from UniProt Q07817)
  Kd: 0.6 nM
